From article PMC3953389, “Dimerization of VirD2 Binding Protein Is Essential for Agrobacterium Induced Tumor Formation in Plants” (PLoS Pathogens, 2014) come the findings set out here.

Assay [1] addresses VirD2-binding protein (VBP), full-length, wild type, 6His-tagged (Agrobacterium tumefaciens C58). The assay can be described thus: AUC; sedimentation velocity, 1 mg/ml, 40,000 rpm, 24°C, absorbance at 280 nm, Sedfit.
Assay [2] has the same target. The assay can be described thus: SEC; size-exclusion chromatography of the purified protein, apparent mass against molecular weight standards; 200 mM NaCl buffers (VBP: 20 mM Tris-HCl pH 8.0, 5% glycerol; HEPN: 30 mM CHES pH 9.0, 5% glycerol; NT: 30 mM Tris-HCl pH 7.5). (Size exclusion chromatography separates by hydrodynamic size, large species first.)
Assay [3] concerns the target C-terminal (HEPN) domain of VBP (Agrobacterium tumefaciens C58). The assay can be described thus: AUC; sedimentation velocity, 1 mg/ml, 40,000 rpm, 24°C, absorbance at 280 nm, Sedfit.
The target is the same in assay [4]. The assay can be described thus: SEC; size-exclusion chromatography of the purified protein, apparent mass against molecular weight standards; 200 mM NaCl buffers (VBP: 20 mM Tris-HCl pH 8.0, 5% glycerol; HEPN: 30 mM CHES pH 9.0, 5% glycerol; NT: 30 mM Tris-HCl pH 7.5).
Assay [5] addresses T1, VBP (VirD2-binding protein) (Agrobacterium fabrum, UniProt Q7CW19).
T1 construct: gene Atu4856; full-length VBP with 6His tag (pET32a, E. coli BL21(DE3)); homodimer 75 kDa; predicted NT domain aa 10-133, HEPN domain aa 159-279
The assay can be described thus: isothermal titration calorimetry. (In general: Isothermal titration calorimetry measures the heat released or taken up as one component is titrated into another.)

Consider “VirD2-binding protein (VBP), full-length, wild type, 6His-tagged (natural protein)”, for which the stoichiometry N in assay [1] and in assay [2] was 2 throughout.
As for “C-terminal (HEPN) domain of VBP (domain or fragment)”, the stoichiometry N in assay [3] and in assay [4] was 2 in each case.
In turn, `Nc1ncnc2c1ncn2[C@@H]1O[C@H](COP(=O)(O)OP(=O)(O)NP(=O)(O)O)[C@@H](O)[C@H]1O` [AMPPNP] displayed a Kd in assay [5] of 2000 nM. In other words, the single-digit micromolar range.

The stoichiometry N is the number of molecules, sites or subunits per partner or assembly. Broadly, the Kd is the free concentration of one partner at which half of the binding sites on the other are occupied at equilibrium, for simple one-to-one binding. A lower Kd goes with higher affinity.
